Data from publication PMC2756588.

T1: Nbp2, Q12163
T1 sequence (Q12163 103-180, looked up): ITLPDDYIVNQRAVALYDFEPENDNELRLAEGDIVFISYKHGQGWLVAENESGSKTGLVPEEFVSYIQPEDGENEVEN

T2: Lsb1, P53281
T2 sequence (P53281 45-122, looked up): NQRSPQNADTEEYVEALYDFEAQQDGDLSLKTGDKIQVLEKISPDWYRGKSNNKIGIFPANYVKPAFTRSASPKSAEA

T3: Cyk3, Q07533
T3 sequence (Q07533 1-83, looked up): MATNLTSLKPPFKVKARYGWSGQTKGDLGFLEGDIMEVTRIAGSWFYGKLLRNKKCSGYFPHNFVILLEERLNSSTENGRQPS

T4: Bzz1-2, P38822
T4 sequence (P38822 568-633, looked up): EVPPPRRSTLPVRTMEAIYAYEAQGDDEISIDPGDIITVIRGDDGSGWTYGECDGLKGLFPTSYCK

T5: Sla1-2, P32790
T5 sequence (P32790 60-140, looked up): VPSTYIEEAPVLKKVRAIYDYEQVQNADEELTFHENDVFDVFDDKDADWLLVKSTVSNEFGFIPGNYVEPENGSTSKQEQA

T6: Lsb4, P32793
T6 sequence (P32793 402-468, looked up): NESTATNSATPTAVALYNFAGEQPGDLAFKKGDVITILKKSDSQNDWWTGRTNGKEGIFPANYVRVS

T7: Cdc25, P04821
T7 sequence (P04821 50-136, looked up): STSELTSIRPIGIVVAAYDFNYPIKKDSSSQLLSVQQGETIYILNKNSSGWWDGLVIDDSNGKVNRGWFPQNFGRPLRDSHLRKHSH

T8: Bzz1-1, P38822
T8 sequence (P38822 478-572, looked up): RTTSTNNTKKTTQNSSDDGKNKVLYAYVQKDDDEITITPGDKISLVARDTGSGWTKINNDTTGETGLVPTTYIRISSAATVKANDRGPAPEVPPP

T9: Boi1, P38041
T9 sequence (P38041 1-86, looked up): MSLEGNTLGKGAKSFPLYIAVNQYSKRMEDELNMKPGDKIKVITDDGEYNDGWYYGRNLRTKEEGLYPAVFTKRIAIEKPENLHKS

T10: Pin3, Q06449
T10 sequence (Q06449 53-122, looked up): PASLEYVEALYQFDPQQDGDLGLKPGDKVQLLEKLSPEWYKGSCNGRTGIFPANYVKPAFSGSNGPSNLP

T11: Abp1, P15891
T11 sequence (P15891 535-592, looked up): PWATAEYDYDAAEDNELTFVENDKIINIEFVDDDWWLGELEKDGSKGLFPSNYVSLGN

T12: Fus1, P11710
T12 sequence (P11710 432-512, looked up): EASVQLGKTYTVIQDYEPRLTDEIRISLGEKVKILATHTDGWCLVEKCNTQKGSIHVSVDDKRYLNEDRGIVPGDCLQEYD

T13: Hse1, P38753
T13 sequence (P38753 208-285, looked up): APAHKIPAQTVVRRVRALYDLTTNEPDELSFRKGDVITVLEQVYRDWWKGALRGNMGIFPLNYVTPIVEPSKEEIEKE

T14: Pex13, P80667
T14 sequence (P80667 295-386, looked up): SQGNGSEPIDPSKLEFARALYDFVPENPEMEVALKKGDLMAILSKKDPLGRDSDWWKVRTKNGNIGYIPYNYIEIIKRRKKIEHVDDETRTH

T15: Sla1-3, P32790
T15 sequence (P32790 344-424, looked up): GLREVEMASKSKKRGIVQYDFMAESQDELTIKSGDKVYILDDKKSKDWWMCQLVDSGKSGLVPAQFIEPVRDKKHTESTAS

T16: Lsb3, P43603
T16 sequence (P43603 385-451, looked up): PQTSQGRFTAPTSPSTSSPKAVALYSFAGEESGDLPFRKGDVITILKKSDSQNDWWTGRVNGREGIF

T17: Myo5, Q04439
T17 sequence (Q04439 1072-1160, looked up): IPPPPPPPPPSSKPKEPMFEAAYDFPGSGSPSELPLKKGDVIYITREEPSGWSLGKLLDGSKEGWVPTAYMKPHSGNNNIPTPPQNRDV

T18: Bud14, P27637
T18 sequence (P27637 247-328, looked up): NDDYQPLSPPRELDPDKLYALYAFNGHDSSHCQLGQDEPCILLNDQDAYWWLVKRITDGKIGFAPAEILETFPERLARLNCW

T19: Bbc1, P47068
T19 sequence (P47068 1-78, looked up): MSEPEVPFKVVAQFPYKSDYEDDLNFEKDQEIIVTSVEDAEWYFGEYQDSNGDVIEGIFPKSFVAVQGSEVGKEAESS

T20: Boi2, P39969
T20 sequence (P39969 32-116, looked up): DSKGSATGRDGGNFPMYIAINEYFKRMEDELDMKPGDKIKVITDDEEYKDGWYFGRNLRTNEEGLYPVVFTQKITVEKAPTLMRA

T21: Hof1, Q05080
T21 sequence (Q05080 590-669, looked up): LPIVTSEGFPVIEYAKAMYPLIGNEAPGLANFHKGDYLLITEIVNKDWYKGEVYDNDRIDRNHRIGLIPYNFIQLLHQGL

B1: unnamed (peptide)
chain: MARRRLPDRPPNGIG
B2: unnamed (peptide)
chain: GAGERPRLVPRPINV
B3: unnamed (peptide)
chain: NSVPIMPTLPPRPYI
B4: unnamed (peptide)
chain: LYKRKPILLPDPKPL

Columns and labels:
Test in all cases: SPOT array
Nbp2, Q12163 = molecular target: T1, Nbp2, Q12163; details: median of control spots 357
Lsb1, P53281 = molecular target: T2, Lsb1, P53281; details: median of control spots 388
GST = details: median of control spots 978
Cyk3, Q07533 = molecular target: T3, Cyk3, Q07533; details: median of control spots 1451
Bzz1-2, P38822 = molecular target: T4, Bzz1-2, P38822; details: median of control spots 4538
Sho1, P40073 = details: median of control spots 1148
Sho1, P40073, sequence (P40073 287-367): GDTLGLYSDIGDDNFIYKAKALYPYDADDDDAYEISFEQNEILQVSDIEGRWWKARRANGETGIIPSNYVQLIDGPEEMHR

Myo3, P36006 = details: median of control spots 468
Sla1-2, P32790 = molecular target: T5, Sla1-2, P32790; details: median of control spots 712
Lsb4, P32793 = molecular target: T6, Lsb4, P32793; details: median of control spots 397
Cdc25, P04821 = molecular target: T7, Cdc25, P04821; details: median of control spots 969
Bzz1-1, P38822 = molecular target: T8, Bzz1-1, P38822; details: median of control spots 4446
Boi1, P38041 = molecular target: T9, Boi1, P38041; details: median of control spots 1162
Pin3, Q06449 = molecular target: T10, Pin3, Q06449; details: median of control spots 2171
Abp1, P15891 = molecular target: T11, Abp1, P15891; details: median of control spots 935
Fus1, P11710 = molecular target: T12, Fus1, P11710; details: median of control spots 1200
Hse1, P38753 = molecular target: T13, Hse1, P38753; details: median of control spots 1727
Pex13, P80667 = molecular target: T14, Pex13, P80667; details: median of control spots 1341
Sla1-3, P32790 = molecular target: T15, Sla1-3, P32790; details: median of control spots 5475
Bem1-1, P29366 = details: median of control spots 4282
Bem1-1, P29366, sequence (P29366 55-141): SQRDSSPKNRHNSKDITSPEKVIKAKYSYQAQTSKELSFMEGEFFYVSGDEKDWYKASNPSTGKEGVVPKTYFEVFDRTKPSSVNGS

Lsb3, P43603 = molecular target: T16, Lsb3, P43603; details: median of control spots 406
Myo5, Q04439 = molecular target: T17, Myo5, Q04439; details: median of control spots 471
Bud14, P27637 = molecular target: T18, Bud14, P27637; details: median of control spots 956
Bbc1, P47068 = molecular target: T19, Bbc1, P47068; details: median of control spots 796
Boi2, P39969 = molecular target: T20, Boi2, P39969; details: median of control spots 1161
Rvs167, P39743 = details: median of control spots 2707
Rvs167, P39743, sequence (P39743 419-482): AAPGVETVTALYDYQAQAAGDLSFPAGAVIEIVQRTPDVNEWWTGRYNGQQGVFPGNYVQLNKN

Bem1-2, P29366 = details: median of control spots 4347
Bem1-2, P29366, sequence (P29366 139-227): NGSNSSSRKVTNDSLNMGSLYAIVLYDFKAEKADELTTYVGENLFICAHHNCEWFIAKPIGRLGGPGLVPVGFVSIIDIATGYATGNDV

Hof1, Q05080 = molecular target: T21, Hof1, Q05080; details: median of control spots 4086

Binder | SPOT intensity (Nbp2, Q12163) | SPOT intensity (Lsb1, P53281) | SPOT intensity (GST) | SPOT intensity (Cyk3, Q07533) | SPOT intensity (Bzz1-2, P38822) | SPOT intensity (Sho1, P40073) | SPOT intensity (Myo3, P36006) | SPOT intensity (Sla1-2, P32790) | SPOT intensity (Lsb4, P32793) | SPOT intensity (Cdc25, P04821) | SPOT intensity (Bzz1-1, P38822) | SPOT intensity (Boi1, P38041) | SPOT intensity (Pin3, Q06449) | SPOT intensity (Abp1, P15891) | SPOT intensity (Fus1, P11710) | SPOT intensity (Hse1, P38753) | SPOT intensity (Pex13, P80667) | SPOT intensity (Sla1-3, P32790) | SPOT intensity (Bem1-1, P29366) | SPOT intensity (Lsb3, P43603) | also measured
B1 | 3 | 587 | 0 | 0 | 160 | 393 | 15 | 1 | 533 | 14 | 0 | 0 | 91 | 113 | 0 | 126 | 99 | 36 | 0 | 175 | SPOT intensity (Myo5, Q04439): 5; SPOT intensity (Bud14, P27637): 4; SPOT intensity (Bbc1, P47068): 69; SPOT intensity (Boi2, P39969): 0; SPOT intensity (Rvs167, P39743): 1590; SPOT intensity (Bem1-2, P29366): 78; SPOT intensity (Hof1, Q05080): 130
B2 | 2 | 18 | 0 | 3 | 0 | 4 | 0 | 1 | 105 | 18 | 1 | 3 | 5 | 9 | 0 | 7 | 24 | 0 | 3 | 60 | SPOT intensity (Myo5, Q04439): 1; SPOT intensity (Bud14, P27637): 0; SPOT intensity (Bbc1, P47068): 30; SPOT intensity (Boi2, P39969): 0; SPOT intensity (Rvs167, P39743): 4; SPOT intensity (Bem1-2, P29366): 1; SPOT intensity (Hof1, Q05080): 11
B3 | 0 | 176 | 1 | 2 | 0 | 0 | 26 | 0 | 513 | 0 | 0 | 0 | 28 | 14 | 0 | 368 | 172 | 0 | 0 | 242 | SPOT intensity (Myo5, Q04439): 25; SPOT intensity (Bud14, P27637): 0; SPOT intensity (Bbc1, P47068): 109; SPOT intensity (Boi2, P39969): 0; SPOT intensity (Rvs167, P39743): 157; SPOT intensity (Bem1-2, P29366): 2; SPOT intensity (Hof1, Q05080): 2750
B4 | 1 | 1210 | 2 | 0 | 0 | 15 | 0 | 0 | 0 | 0 | 0 | 0 | 7 | 43 | 0 | 2 | 1 | 0 | 0 | 0 | SPOT intensity (Myo5, Q04439): 1; SPOT intensity (Bud14, P27637): 1; SPOT intensity (Bbc1, P47068): 2; SPOT intensity (Boi2, P39969): 0; SPOT intensity (Rvs167, P39743): 0; SPOT intensity (Bem1-2, P29366): 0; SPOT intensity (Hof1, Q05080): 0
